Reference: the nanobody polyreactivity screen of Harvey et al. (2022)

Assay: yeast display, Sf9 membrane polyspecificity reagent, FACS + sequencing; frameworks hold sequencing errors
Summary of the method: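 A synthetic nanobody library was expressed on Saccharomyces cerevisiae BJ5465 by galactose induction for 36–48 hours. The library was stained for 1 hour at 4 °C with 10% biotinylated, detergent-solubilized Sf9 membrane reagent and enriched with streptavidin microbeads before FACS. Low and high (top ~1%) gates were set on anti-HA fluorescence for expression and streptavidin fluorescence for reagent binding, and each polyreactivity label reflects the gate of origin.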

Sequence	polyreactivity (PSR sort gate)
QVQLVESGGGLVQAGGSLRLSCAASGYNFGVYAMGWYRQAPRKERELVARITSGGSTNYADSVKGRFTISRDNAKITVYLQMNSLKPEDTAVYYCAAAVGNTDREYDYWGQGTQVTVSS	low polyreactivity
QVQLVESGGGIVQAGGSLRLSCAASGYTFGRYAMGWYRQAPGKERELVAGIRWRGGSTYYADSVKGRFTISRDNAKNTVYLQMNSLKPEDTAVYYCAAYGYPVYYNYHYDYWGQVTQVTVSS	high polyreactivity
QVQLVESGGGLVQAGGSLRLSCAASGFTFRYYAMGWYRQAPGKEWELVARITWNGGRTYYADSVKGRFTISRDNAKNTLYLQMNSLKPEDTAVYYCAARGFYRSYYWGQGTQVTVSS	high polyreactivity
QVQLVESGGGLVQAGGSLRLSSPASGSTYVVYAMGWYRPAPGKERELVADITRSGGSTYYADSVKGRFTISRDNAKNTVYLQMNSLKPEDSAVYYCAAVRRNGPYKYYYWGQGTQVTVSS	high polyreactivity
QVQLVESGGGLVQAGGSLRLSCAASGSTFTYYAMGWYRKAPGKETELVAAIDFSGTSTYYADSVKGRFTISRDNAQNTVYLKMNSLKPEDTSVYYCAASQSWYWGGAHDNGEFGYWGQGTQVTVSS	low polyreactivity
QVQLQESGGGLVQAGASQRLSCAASGYIFYFQYMGWYRQAPGKEREFVAAISDGANTNYADSVKGRFTISRDNAKNTEYLQMNSLKPEDTAVYYCAVYADENYYYIYWGQGTQVTVSS	low polyreactivity
QVQLVESGGGLVQAGGSLRLSCAASGRTFSVNAMGWYRQAPGKERELVAAITSGGSTYYADSVKGRFTISRDNAKNTVYLQMNSLKPEDTAVYYCNAVGRLRRSRLRMDYWGQGTQVTVSS	high polyreactivity
QVQLVESGGGLVQAGGSLRLSCAASGRTFYYYVMGWYRQAPGKEREFVAAITSGGSTNYADSVKGRFTISRDNAKNTVYLQMNSLKPEDTAVYYCAAGKYTIYGYWTPYDYWGQGTQVTVSS	low polyreactivity
QVQLVDSGGGLVQAGGSLRLSCAASGSIFVKYAMGWYRQAPGKERELVAAISWRGGSTYYADSVKGRFTISRDNAKNTVYLQMNSLKPEDTAVYYCAKYPGISGYNYWGQGTQVTVSS	high polyreactivity
QVQLQESGGGLVQAGGSLRLSCAASGSIFVSVTMGWYRQAPGKERELVASIGRGSTTNHADSVKGRFTISRDNAKNIVYLLMNSLKPEDTEVYYCAALESYGKYHGYWGQGTQVTVSS	low polyreactivity
QVQLVESCGGLVQAGGILRLSCAASGSTFRYYVMGWYRQAPGKERELVAAITSGGSKYYADSVKGRFTISRDNEQNTVYLQMNSLKPDDTAVYYCNKVYSRTFDYWGQGTQVTVSS	high polyreactivity
QVQIVESVGGLDQAGGSLRLSCAASGSKFVYYAIGSYRQAPAKERELVAAIDVSDGGTYYADSVKVRFSISRDNAKNTVYLQMNSLKPEVTAVYYCAADQGIDVPFICYDYWGQGTQVTVSS	high polyreactivity
QVQLVESGGGLVQAGGSLRLSCAASGNIFYINAMGWYRQAPGKERELVAAISSGGRTNYADSVKGRFTISRDNAKNTVYLQMNSLKPEDTAVYYCNADGWYAWRYYAPGGYDYWGQGTQVTVSS	low polyreactivity
QVQLVESRAGLVQAGGSLRLSCAASGNIFDIYAMGWYRQAPGKERELVAAISSGGSTYYADSVKGRFTISRDNAKNTVYLQLNSLKPEDTAVYYCAESRVGYYRYEYWGQGNQVTVSS	low polyreactivity
QVQLVESGGRLVQAGGSIRLSCAASGSTLNVNAMGGYRQAPGKERELVAAITSGGSTYYADSVKGRFTISRDNAKNTVYLQMNSLKPEDTAVYYCNKRRSWRPTYPIGGSGFYYWGQGTQVTVSS	low polyreactivity
QVHLVESGGGLVQAGGSLRLSCAASGLIFNIYAMGWYRQAPGKERELVAAISKSGGSTYYADSVKGRFTISRDNAKNTVYLQMNSLKPEDTAVYYCAVVRNSYRVLRLNYWGQGTQVTVSS	high polyreactivity
QVQLVESGGGLVQAGGSLRLSCSASGRTSQWNAMGWYRQAPGKERELVAAISWRTGGTYYADSVKGRFTISRDKAKNTVYLQMNSLQPEDTAVYYCAAGYIGGRPQYWRIGGYWGQGTQVTVSS	high polyreactivity
QVQLVESGGGLVQAGGSLRLSCAASGNGLGWYRQAPGKERELVAAITRRGGSTYYADSVKGRFTISRDNAKNTVYLQMNSLKPEDTAVYYCAADNPSYNLWYGYWGQGTQVTVSS	low polyreactivity
QVQLVESGGGLVQAGGSLRLTCAASGSTFRVNVMGWYRQAPGTERELVAAITTSGGSTYYADSVKGRFTISRDNAKNTVYLQMNSLKPEDTAVYYCKTTYPSGWGPDMDYWGQGTQVTVSS	low polyreactivity
QVQLGESGGGLVQAGGSLRLSCAPSGSTFNRFARGWYILAPGNVRELVAAISRSGGSTYYADSVKGRFTISRDNPKTTLYLQMNSLKPEDTAVYYCAADRTGHGFGYWGQGTQVTVSS	high polyreactivity
QVQLVESGGGLVPAGGSLRLSCAASGSIFTNAMGWYRQAPGKERELVAAIDANAGDTHYADSVKGRFTISRDNAKNTVYLQMNSLKPEDTAVYSCNADVTERLWTGEDDYWGQGTQVTVSS	low polyreactivity
PVQLVESGGGLVQAGGSLRLSCAACGYTFQVYAMGWYRQAPGKERELVASIRWRGGRTYYADSVKGRFTISRDNAKNTVYLKLNSLKPADTSVYYCAARQFVIYPTYYTYYYWGQGTQVTVSS	high polyreactivity

Sequence	polyreactivity (PSR sort gate)
QVQLVESGGGLVQAGGSLRLSCAASGSIFYSYAMGWYRQAPGKERELVARITKRGGRTYYADSVKGRFTISRDNAKNTVYLQMNSLKPEDTAVYYCAATTGHRTYRYYYWGQGTQVTVSS	high polyreactivity
QVQLVESGGGLVQAGGSLRLSCAASGSIFVNNAMGWYRQAPGKERELVAAISSRGGSTYYADSVKGRFTISRDNAKNTVYLQMNSLKPEDTAVYYCAAEYDGPYYSFYPEQRYYWGQGTLVTVSS	low polyreactivity
QVQLVESGGGLVQAGGSLRLSCAASGNIFFSNAMGWYRQAPGKERELGASISQSGGSTYYADAVKGRFTISRDNAKNTVYLQMNSLKPEDTAVYYCAATQVRRGPAWGRDYWGQGTQETVSS	low polyreactivity
QVQLVESGGGLVQAGGSLRLSCAASGIIFSYYTMGWYRQEPGKEREVVAAISARGGRTYYADSVKGRFTISRDNAKNTVYLQMNSLKPEDTAVYYCAASWSTEYYWGQGTQVTVSS	high polyreactivity
QVQLVDSWGGLVQAGGSLRLSCAASGSIFYRKAMGCYRQAPGKERELFAAITRSDVRTYYADSVKGRFTISRDNAKNTVYLQMNSLKPEDTAVYYCAALEYGSYQHFGEDYWGQGSQVTVSS	low polyreactivity
QVQLVESGVGLVQAGGSLRLTCAASGSIFTAYPMGSYRQAPGKERELVAAISRSGGRTYYADSVKGRFTISRDNAQITVNFQFNSLKPEDTAVYNCAAASRSTNYNYYYWGLGTQVTVSS	high polyreactivity
QVQLVESGGGLVQAGGSLRLSCAASGSIFRRYAMGWYRQAPGKERELVAAISWRGDSTYYADSVKGRFTISRDNAKNTVYLQMNSLKPEDTAVYYCNSLIGANPLCYAARYDYWGQGTQVTVSS	low polyreactivity
QVQLVESGGGLVQAGGSLRLSCAASGSIFVGYAMGWYRQAPGKERELVAAITKRGGSTSYADSVKGRFTISRDNAKNTVYLQMNSLKPEDTAVYYCAKLYYRHLYEYDYWGQGTQVTVSS	high polyreactivity
HAQLQESGGGLVQAGGSLRRSCAASGSMFRFSGMGWYRRAPGKERELVASIGFGSITYYADRVKGRFTISRDNANHTVYLQMNTLKPEDTAVYYCAVQVQDESWLDYWGQGTQVTVSC	low polyreactivity
QVQLVESVGGLVQAGGSLRLSCAASGITFYYYVMGWYRQAPGKERELVAAIDTGDSTYYADSVKGRFTISRDNAKNTVYLQMNSLKPEDTAVYYCAVDYEADNELNGPDQEYGRDSWGQGTQVTVSS	low polyreactivity
QVQLVESGGGLVQAGGSLRLSCAASGSIFGKYAMGWYRQAPGKERELVAAISGRGGGTYYADSVKGRFTISRDNAKNTVYLQMNSLKPEDTAVYYCNAYYSRLRYDYWGQGTQVTVSS	high polyreactivity
QVQLVESGGGLVQAGGSLRLSCAASGRIFRSNARGWYRPAPGKERELVAAISSNGGSTYYADSVKGRFTISRDNAKNTVYLQMNSLKPEDTAVYYCAARVYYPVRYGYWGQGTQVTVSS	high polyreactivity
QVQLVESGGGLVQAGGSLRLSCAASGIIFVAYARGWYRQAPGKERELVAAITWGGGRTYYADSVKGRFTISRDNAKNTVYLQMNSLKPEDTAVYYCAAVVWYDPRATYVYWGQGTQVTVSS	low polyreactivity
QVQLVESGGGLVQAGGSLRLSCAASGRTLGTNAMGWYRQAPGKERELVAAITRNGGSTYYADSVKGRFTISRDNAKNTVYLQMNSLKPEDTAVYYCAARYFHSVGGWPVSYRYNYWGQGTQVTVSS	high polyreactivity
QVQLVESGGGLVQAGGSLRLSCAASGRTFGTYAMGWYRQAPGKERELVAAISSGGSTYADSVKGRFTISRDNAKNTVYLQRNSLTPEETAVYYCNADFRARNYHYYPRRFKYYYWGQGTQVTVSS	high polyreactivity
QVQLVESGGGLVQAGGSLRLSCAASGSNFTVYDMGWYRQAPGKERELVAAISFSGGSTYYADSVKGRFTISRDTAKNTVYLQMNSLKPVDTAVYYCAADTYTTPYEYWGQGTQVTVSS	low polyreactivity
QVQLVESGGGLVQAGGSLRLSCAASGSNFDTYAMGWYIPAPGKERELVAVLTWSGGGTYYSDSVKGRFTISRDNANNTVYLQMTSVKPEVTAVYYCNAADFGWDYASYYWGQGTQLTVSS	low polyreactivity
QVQLVESGGGLVQAGGSLRLSCAASGSTFTPYAMGWYRQAPGKERELVAAISIRGGSTNYADSVKGRFTISRDNAKNTVYLQMNSLKPEDTAVYYCNAGRLRYIFKSYDYWGQGTQVTVSS	high polyreactivity
QVQLVESGGGLVQAGGSLRLSCAASGRILFWYAMGWYRQAPGKERELVAAISSSGGSTYYADSVKGRFTISRDNAKNTFYLLMNSLKPEDTAVYYCAADGVVDYGYWFVVEYEYWGQGTQVTVSS	high polyreactivity
QVQLVETGGGLVQAGGSLRLSCAASGRIIRYNAMGWYSQAPGKERELVAAISTRGGNTYYADSVKGRFTISRDNAKNTVYLQMNSLKPEDTAVYYCNARSSLPYNYWGQGTQVTVSS	high polyreactivity
QVQLVESGGGLVQAGGSLRLSCAASGRTFFQYAMGWYRQAPGKERELVAAIRWSDSTYYADSVKGRFTISRDNAKNTVYLQMNSLKPEDTAVYYCAAPRVSQYSTKKYDYWGQGTQVTVSS	low polyreactivity
